Data set [1] is classed as physicochemical. As to conditions: for unfolding behaviour in guanidinium hydrochloride: loss of CD signal at 222 nm. The method, then: CD spectra were recorded with a Model 420 spectrometer (AVIV Biomedical) or a J-1500 Circular Dichroism Spectrometer (JASCO). Unless stated otherwise, proteins were at 20 μM in PBS and data were collected at 25° C.
In another data set the target is T1, Mcl-1 (Homo sapiens, UniProt Q07820).
T1 construct: Mcl-1 a.a; made in house; host or cells: E. coli BL21* (DE3)
T1 sequence (Q07820 172-327): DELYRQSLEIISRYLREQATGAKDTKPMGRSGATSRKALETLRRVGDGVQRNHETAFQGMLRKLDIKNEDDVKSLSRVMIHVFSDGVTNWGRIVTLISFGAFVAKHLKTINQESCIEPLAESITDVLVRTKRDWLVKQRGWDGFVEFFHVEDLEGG
The data set is described as follows: Bio-layer interferometry (BLI), immobilized Mcl-1. It is filed as binding. As to conditions: BLI; for Kd: lower bound in μM. From the text:
(§1) 11-175 (NP_065129.1), Mcl-1 a.a. […] For later BLI analysis, Bcl-B and Bfl-1 were genetically fused to C-terminal maltose-binding-protein with an avi-6his tag for improved solution properties. Codon usage was optimized for E. coli expression. […] The genes for individually-tested designed proteins were assembled from oligos (Hoover and Lubkowski, 2002) and cloned into pET29b (NdeI-XhoI sites) with C-terminal 6his tags for purification from E. coli, or cloned into PETCON (NdeI-XhoI sites; (Fleishman et al., 2011)) for yeast surface expression. Alternative tags were added using PCR methods. Point mutations were made by overlapping PCR (Procko et al., 2013). Error-prone PCR with an average error rate of 1.3 amino acid substitutions per clone used GeneMorph II Random Mutagenesis (Agilent Technologies).
(§2) Purified avi-6his-tagged ligands (20 μM) in reaction buffer (250 mM potassium glutamate, 20 mM Tris-Cl [pH 7.5], 50 mM bicine [pH 8.3], 10 mM ATP, 10 mM MgOAc, 100 μM d-biotin) were enzymatically biotinylated with 150 U/μl BirA (Avidity) at room temperature overnight, followed by purification with NiNTA-agarose and SEC. Biotinylated ligands were stored at 4° C. in 150 mM NaCl, 20 mM Tris-Cl (pH 7.5), 1 mM DTT, 0.02% sodium azide.
(§3) Data were collected on an Octet RED96 (Forte Bio) and processed using the instrument's integrated software. […] Biosensors were dipped in solutions containing the analyte of interest to measure association, and transferred back to empty binding buffer for monitoring dissociation. Kinetic constants were determined from the mathematical fit of a 1:1 binding model.
On the technique in general: In BLI a coated tip is dipped into the sample, and binding shifts an interference pattern.

For the next data set, the target named is T2, Bcl-B (Homo sapiens, UniProt Q9HD36).
T2 construct: Bcl-B a.a; 11-175 (NP_065129.1); made in house; host or cells: E. coli BL21* (DE3)
T2 sequence (Q9HD36 11-175): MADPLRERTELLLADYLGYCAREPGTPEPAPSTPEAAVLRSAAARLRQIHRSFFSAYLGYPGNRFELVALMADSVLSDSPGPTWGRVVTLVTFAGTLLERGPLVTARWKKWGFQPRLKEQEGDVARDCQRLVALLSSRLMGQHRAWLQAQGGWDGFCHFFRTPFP
Kind of data set: Bio-layer interferometry (BLI), immobilized Bcl-B. It is filed as binding. As to conditions: lower bound in μM.
Text: as §1, §2, §3

For the next data set, the target named is T3, Bcl-2 (Homo sapiens, UniProt P10415).
T3 construct: human Bcl-2 a.a; made in house; host or cells: E. coli BL21* (DE3)
T3 sequence (P10415 1-207): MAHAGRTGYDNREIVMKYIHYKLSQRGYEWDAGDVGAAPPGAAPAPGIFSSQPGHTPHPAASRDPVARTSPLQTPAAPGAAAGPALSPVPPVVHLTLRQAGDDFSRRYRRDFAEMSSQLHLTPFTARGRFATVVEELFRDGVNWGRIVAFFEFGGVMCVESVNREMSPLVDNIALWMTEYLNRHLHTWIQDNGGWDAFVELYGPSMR
The data set is described as follows: Bio-layer interferometry (BLI), immobilized Bcl-2. In kind it is binding.
Text: as §1
Purified avi-6his-tagged ligands (20 μM) in reaction buffer (250 mM potassium glutamate, 20 mM Tris-Cl [pH 7.5], 50 mM bicine [pH 8.3], 10 mM ATP, 10 mM MgOAc, 100 μM d-biotin) were enzymatically biotinylated with 150 U/μl BirA (Avidity) at room temperature overnight, followed by purification with NiNTA-agarose and SEC. […]
Data were collected on an Octet RED96 (Forte Bio) and processed using the instrument's integrated software. […] Kinetic constants were determined from the mathematical fit of a 1:1 binding model.

A further data set deals with T4, Bfl-1 (Homo sapiens, UniProt Q16548, C4S).
T4 sequence (Q16548 1-153 C4S): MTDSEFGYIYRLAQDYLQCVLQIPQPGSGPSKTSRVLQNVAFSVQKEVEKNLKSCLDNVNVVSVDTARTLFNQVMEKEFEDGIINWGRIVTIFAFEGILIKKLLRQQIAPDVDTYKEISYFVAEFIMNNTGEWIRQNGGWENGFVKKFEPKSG
Kind of data set: Bio-layer interferometry (BLI), immobilized Bfl-1. It is filed as binding. Also on record: Bfl-1 a.a; made in house; host or cells: E. coli BL21* (DE3). As to conditions: lower bound in μM.
Text: as §1, §2, §3

Another data set has as its target BHRF1 (Epstein-Barr virus, UniProt P03182). The method, then: Proteins (20 nmol each) were injected in a 200 μl loop in line with a Superdex-75 10/300 column (GE Healthcare) and separated with running buffer (20 mM Tris-Cl pH 7.5, 150 mM NaCl, 1 mM DTT) at room temperature.
Data set [2] deals with mitochondria isolated from Ramos-AW (EBV-positive) and Ramos (EBV-negative) cells. Kind of data set: Cytochrome c release from isolated mitochondria, Ramos-AW versus Ramos. It is filed as cell-based, human. As to conditions: 30 min. On the procedure: (§4) Cells (˜10^9) were equilibrated in 5 ml of homogenization buffer (0.25 M sucrose, 1 mM EGTA, 10 mM HEPES/NaOH, 0.5% BSA, pH 7.4, Roche Complete protease inhibitors) for 5 min. Samples were kept on ice or at 4° C. until assayed. Cells were homogenized under N2 pressure (400 psi) in a steel disruption vessel (Parr Instrument Company) for 10 min, then centrifuged (750 g) for 10 min to remove intact cells. Supernatant was centrifuged again (12,000 g) for 12 min to collect mitochondria. The pellet was resuspended in 300 μl wash buffer (0.25 M sucrose, 1 mM EDTA, 10 mM Tris/HCl pH 7.4). Proteins at the indicated concentrations were incubated with mitochondria (25 μg mitochondrial protein based on BCA assay, Sigma) in 50 μl final volume of experimental buffer (125 mM KCl, 10 mM Tris-MOPS pH 7.4, 5 mM glutamate, 2.5 mM malate, 1 mM K-PO4, 10 μM EGTA-Tris pH 7.4) for 30 min at room temperature. Reaction solutions were centrifuged (18,000 g) for 10 min at 4° C. and cytochrome c release was quantified using a Cytochrome c ELISA kit (Life Technologies). Complete cytochrome c release was quantified by treatment with 0.5% Triton-X100.
(§5) Ramos, Ramos-AW, Daudi, Raji, DOHH2, JVM-2, and JVM-13 were grown in RPMI 1640 containing L-glutamine and 25 mM HEPES supplemented with 1% penicillin-streptomycin (GIBCO) and 10% fetal bovine serum (FBS, Invitrogen). […]

Data set [3] relates to mitochondria from six EBV-positive and four EBV-negative cancer lines. The data set is described as follows: Cytochrome c release from isolated mitochondria, panel of cancer lines. As to conditions: 10 μM. In kind it is cell-based, human. On the procedure:
as §4, §5

Sequence of BHRF1 (P03182 1-161): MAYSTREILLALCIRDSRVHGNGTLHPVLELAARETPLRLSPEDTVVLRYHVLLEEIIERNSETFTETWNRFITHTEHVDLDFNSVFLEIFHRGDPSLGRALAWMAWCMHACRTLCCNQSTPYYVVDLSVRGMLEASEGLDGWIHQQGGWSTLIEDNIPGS

B1: M-CDP02: SEQ ID NO: 29; target Mcl-1 (protein)
chain: ADPKKVLDKAKDQAENRVRELKQELEELYKEARKLDLTQEERRKLEESYIAAMLRAIGDIFNAIMQAKNEADKLKKAGLVNSQQLDELRRRLEELRKEASLKAEDYGREFQEKLEY
For B1, in data set [1], the “unfolding behaviour in guanidinium hydrochloride” value is “unfolded over broad denaturant concentration ranges”.

B2: 2-INDI: SEQ ID NO: 3; target Bcl-2 (protein)
chain: ADPKKVLDKAKDEAENRVRELKQRLEELYKEARKLDLTQEMRQELVDKARAASLQANGDIFYAILRALAEAEKLKKAGLVNSQQLDELKRRLEELAEEARRKAEKLRDEFRLKLEY
The Kd is a measure of binding affinity in units of concentration. Read a high Kd as weaker binding. As to B2, the Kd with Mcl-1, with Bcl-B and with Bfl-1 was greater than 75 µM in each case. Moreover, the “protein stability relative to the original computational design” value in data set [1] is reported as “slightly to moderately decreased”. Besides, the “fold weaker affinity for the next tightest binding BCL2 family protein (target Bcl-2)” value with Bcl-2 is recorded as > 2,000 fold.

B3: XINDI: SEQ ID NO: 4; target Bcl-XL (protein)
chain: ADPKKVLDKAKDRAENVVRKLKKELEELYKEARKLDLTQEMRDRIRRTAIAARFQAHGDIFHAIKHAKEEARKLKKAGLVNSQQLDELKRRLRELDEEAEQRAEKLGKEFRLKLEY
For B3, the Kd with Mcl-1, with Bcl-B and in the data set with Bfl-1 was greater than 50 µM throughout. Moreover, the “protein stability relative to the original computational design” value in data set [1] is “slightly to moderately decreased”.

B4: BbpD04.2: BbpD04.1 with four mutations: I21L, Q79L, I84Q and H104R (protein)
chain: ADWKKVLDKAKDIAENRVRELKQKLEEFYKEAMKLDLTQEMRRKLMLRWIAAMLMAIGDIFNAIRQAKQEADKLKKAGLVNSQQLDELKRRLEELKEEASRKCRDYGREFQLKLEY
As to B4, the “elution by SEC when mixed with BHRF1” value in the data set with BHRF1 (in solution) is “higher molecular weight (MW) complex”. In addition, the “state by SEC after purification from E. coli” value with BHRF1 (protein alone) is “monodisperse and monomeric”.

B5: BINDI N62S: BINDI variant with N62S (protein)
chain: ADPKKVLDKAKDQAENRVRELKQKLEELYKEARKLDLTQEMRRKLELRYIAAMLMAIGDIYSAIRQAKQEADKLKKAGLVNSQQLDELKRRLEELKEEASRKARDYGREFQLKLEY
As for B5, in the data set with Mcl-1, the “change of affinity for Mcl-1 relative to BINDI” value is listed as “diminished six-fold”. Also, in data set [2], the “cytochrome c release, Ramos-AW compared with Ramos mitochondria” value is on record as “enhanced apoptotic activity against EBV-positive Ramos-AW”. Besides, the cytochrome c release result in data set [3] (Raji and JVM-2) is “low levels of cytochrome c release”; in data set [3] (Ramos-AW, Daudi, Granta 519, JVM-13) it was “high cytochrome c release”.

B6: X-CDP07: SEQ ID NO: 47; target Bcl-xL (protein)
chain: ADPKKVLDKAKDRAENVVRKLKKELEELYKEARKLDLTQEMRDRIRLAAIAARIAAFGDIFHAIMEALEEARKLKKAGLVNSQQLDELKRRLEELDEEAAQRAEKLGKEFELKLEY
In turn, B6 gave a Kd with Bfl-1 greater than 50 µM.

B7: M-CDP05: SEQ ID NO: 32; target Mcl-1 (protein)
chain: ADPKKVLDKAKDQAENRVRELKQKLEELYKEARKLDLTQEERHRLETKALSALLAAIGDILDAIMQALQEAAKLKKAGLVNSQQLDELKRRLEELRKEASRKARDYGREFWLKLDY
For B7, in data set [1], the “unfolding behaviour in guanidinium hydrochloride” value is given as “unfolded over broad denaturant concentration ranges”.

B8: WINDI: SEQ ID NO: 265; target Bcl-w (protein)
chain: DPKKVFDELKDRAENNVRRLKQKLEELYKEARKKDLTQEEREKLKTKYKTAMQLAALAAEGDIMNALLKARKLHKNGQVNEQQLEELARRLMELAKEAFQKAKDYANEFKYKLEY
For the molecule B8, the Kd with Mcl-1, in the data set with Bcl-B and with Bfl-1 was greater than 25 µM in each case.

Source of the values: US9750814B2, “Polypeptides to inhibit epstein barr viral protein BHRF1 and B cell lymphoma family proteins” (priority 2014, dated 2017).
